Reference: IntAct's records for PubMed 19909340

B1: Broad substrate specificity ATP-binding cassette transporter ABCG2 (Homo sapiens), Q9UNQ0 (parent)
chain: MSSSNVEVFIPVSQGNTNGFPATASNDLKAFTEGAVLSFHNICYRVKLKSGFLPCRKPVEKEILSNINGIMKPGLNAILGPTGGGKSSLLDVLAARKDPSGLSGDVLINGAPRPANFKCNSGYVVQDDVVMGTLTVRENLQFSAALRLATTMTNHEKNERINRVIQELGLDKVADSKVGTQFIRGVSGGERKRTSIGMELITDPSILFLDEPTTGLDSSTANAVLLLLKRMSKQGRTIIFSIHQPRYSIFKLFDSLTLLASGRLMFHGPAQEALGYFESAGYHCEAYNNPADFFLDIINGDSTAVALNREEDFKATEIIEPSKQDKPLIEKLAEIYVNSSFYKETKAELHQLSGGEKKKKITVFKEISYTTSFCHQLRWVSKRSFKNLLGNPQASIAQIIVTVVLGLVIGAIYFGLKNDSTGIQNRAGVLFFLTTNQCFSSVSAVELFVVEKKLFIHEYISGYYRVSSYFLGKLLSDLLPMRMLPSIIFTCIVYFMLGLKPKADAFFVMMFTLMMVAYSASSMALAIAAGQSVVSVATLLMTICFVFMMIFSGLLVNLTTIASWLSWLQYFSIPRYGFTALQHNEFLGQNFCPGLNATGNNPCNYATCTGEEYLVKQGIDLSPWGLWKNHVALACMIVIFLTIAYLKLLFLKKYS

Variants of: B1
Conditions: with ubc_human UBC

Variant	effect of a mutation on the interaction
N596Q	increasing interaction
